Measured values taken from patent US20160200782A1 (MOERAE MATRIX, published 2016).

What was measured:
Experiment in all cases: cell-based or functional assay
LOK(h) = LOK(h) (human, UniProt O94804 1-348, limits assumed)
PDGFRα(V561D)(h) = PDGFRα(V561D)(h) (human, UniProt P16234 550-1089, limits assumed)
cSRC(h) = cSRC(h) (human, UniProt P12931 1-536, limits assumed)
EGFR(h) = EGFR(h) (human, UniProt P00533 696-1210, limits assumed)
Met(Y1248D)(h) = Met(Y1248D)(h) (human, UniProt P08581-2 974-1408, limits assumed)
PASK(h) = PASK(h) (human, UniProt Q96RG2 879-1323, limits assumed)
SGK3(h) = target: T1, SGK3(h) (human, UniProt Q96BR1 1-496, limits assumed)
T1 sequence (looked up): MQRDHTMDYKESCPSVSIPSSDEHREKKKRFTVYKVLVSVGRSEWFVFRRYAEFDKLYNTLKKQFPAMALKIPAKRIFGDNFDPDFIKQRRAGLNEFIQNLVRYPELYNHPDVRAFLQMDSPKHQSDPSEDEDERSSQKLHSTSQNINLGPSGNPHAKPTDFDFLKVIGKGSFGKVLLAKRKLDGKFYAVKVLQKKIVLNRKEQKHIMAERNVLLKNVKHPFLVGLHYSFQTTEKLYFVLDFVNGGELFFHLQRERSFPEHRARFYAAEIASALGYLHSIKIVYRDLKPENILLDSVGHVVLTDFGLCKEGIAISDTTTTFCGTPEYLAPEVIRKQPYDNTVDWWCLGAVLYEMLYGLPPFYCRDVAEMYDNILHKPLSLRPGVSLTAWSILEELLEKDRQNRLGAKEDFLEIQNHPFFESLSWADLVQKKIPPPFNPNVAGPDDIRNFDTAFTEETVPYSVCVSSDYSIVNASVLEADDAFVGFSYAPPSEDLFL

Rsk3(h) = Rsk3(h) (human, UniProt Q15349 1-733, limits assumed)
ROCK-I(h) = ROCK-I(h) (human, UniProt Q13464 17-535)
HIPK1(h) = HIPK1(h) (human, UniProt Q86Z02 158-555, limits assumed)
PKG1β(h) = target: T2, PKG1β(h) (human, UniProt Q13976-2 1-686)
T2 sequence (looked up): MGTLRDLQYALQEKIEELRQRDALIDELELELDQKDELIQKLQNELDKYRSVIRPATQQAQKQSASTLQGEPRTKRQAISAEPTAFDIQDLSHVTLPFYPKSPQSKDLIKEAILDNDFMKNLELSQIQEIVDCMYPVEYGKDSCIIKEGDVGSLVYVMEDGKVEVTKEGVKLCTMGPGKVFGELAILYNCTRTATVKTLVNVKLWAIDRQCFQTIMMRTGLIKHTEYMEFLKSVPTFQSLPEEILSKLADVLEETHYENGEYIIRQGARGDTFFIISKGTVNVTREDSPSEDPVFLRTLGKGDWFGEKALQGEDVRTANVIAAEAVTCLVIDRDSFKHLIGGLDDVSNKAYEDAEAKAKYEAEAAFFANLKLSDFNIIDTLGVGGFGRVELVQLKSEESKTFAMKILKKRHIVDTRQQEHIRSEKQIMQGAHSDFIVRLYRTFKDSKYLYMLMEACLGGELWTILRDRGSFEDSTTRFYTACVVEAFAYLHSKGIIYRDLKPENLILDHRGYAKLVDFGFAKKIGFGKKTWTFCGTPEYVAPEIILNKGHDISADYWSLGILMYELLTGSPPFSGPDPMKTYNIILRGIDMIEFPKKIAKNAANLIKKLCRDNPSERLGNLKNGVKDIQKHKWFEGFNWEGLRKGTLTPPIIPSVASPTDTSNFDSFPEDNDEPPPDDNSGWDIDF

PAK3(h) = PAK3(h) (human, UniProt O75914 1-559, limits assumed)
EphA1(h) = target: T3, EphA1(h) (human, UniProt P21709 569-976, limits assumed)
T3 sequence (looked up): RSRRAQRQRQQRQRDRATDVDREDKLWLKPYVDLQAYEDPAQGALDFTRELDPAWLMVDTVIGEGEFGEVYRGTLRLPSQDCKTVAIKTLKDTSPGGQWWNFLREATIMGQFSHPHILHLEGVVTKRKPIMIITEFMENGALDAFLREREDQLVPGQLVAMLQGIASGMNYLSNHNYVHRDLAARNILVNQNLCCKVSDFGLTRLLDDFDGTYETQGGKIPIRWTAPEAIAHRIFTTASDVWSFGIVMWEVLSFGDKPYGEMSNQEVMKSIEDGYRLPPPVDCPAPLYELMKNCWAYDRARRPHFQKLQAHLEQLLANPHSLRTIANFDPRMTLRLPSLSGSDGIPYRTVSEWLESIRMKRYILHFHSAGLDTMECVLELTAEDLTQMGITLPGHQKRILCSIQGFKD

cKit(D816H)(h) = cKit(D816H)(h) (human, UniProt P10721 544-976, limits assumed)
PKBβ(h) = PKBβ(h) (human, UniProt P31751 1-481, limits assumed)
mTOR/FKBP12(h) = mTOR/FKBP12(h) (human, UniProt P42345 1362-2549; P62942 1-108)
IRR(h) = IRR(h) (human, UniProt P14616 960-1297, limits assumed)
PKCδ(h) = PKCδ(h) (human, UniProt Q05655 1-676)
Aurora-B(h) = Aurora-B(h) (human, UniProt Q96GD4 1-344)
CSK(h) = CSK(h) (human, UniProt P41240 1-450)
Also: test concentration or dose not given here.

PASK(h), sequence (Q96RG2 879-1323 limits assumed): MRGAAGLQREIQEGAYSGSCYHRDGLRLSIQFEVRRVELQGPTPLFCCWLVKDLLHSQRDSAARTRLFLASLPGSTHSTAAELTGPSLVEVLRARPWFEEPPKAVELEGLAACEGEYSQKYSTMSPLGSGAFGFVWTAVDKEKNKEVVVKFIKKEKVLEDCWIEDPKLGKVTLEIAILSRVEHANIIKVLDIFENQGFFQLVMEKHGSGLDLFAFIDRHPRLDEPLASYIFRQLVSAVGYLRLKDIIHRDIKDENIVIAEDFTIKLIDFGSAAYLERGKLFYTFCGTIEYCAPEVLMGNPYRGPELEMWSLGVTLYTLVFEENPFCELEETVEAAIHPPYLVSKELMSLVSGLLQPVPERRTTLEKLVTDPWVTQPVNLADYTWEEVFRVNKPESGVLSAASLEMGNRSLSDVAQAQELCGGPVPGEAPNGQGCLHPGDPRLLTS
PAK3(h), sequence (O75914 whole entry): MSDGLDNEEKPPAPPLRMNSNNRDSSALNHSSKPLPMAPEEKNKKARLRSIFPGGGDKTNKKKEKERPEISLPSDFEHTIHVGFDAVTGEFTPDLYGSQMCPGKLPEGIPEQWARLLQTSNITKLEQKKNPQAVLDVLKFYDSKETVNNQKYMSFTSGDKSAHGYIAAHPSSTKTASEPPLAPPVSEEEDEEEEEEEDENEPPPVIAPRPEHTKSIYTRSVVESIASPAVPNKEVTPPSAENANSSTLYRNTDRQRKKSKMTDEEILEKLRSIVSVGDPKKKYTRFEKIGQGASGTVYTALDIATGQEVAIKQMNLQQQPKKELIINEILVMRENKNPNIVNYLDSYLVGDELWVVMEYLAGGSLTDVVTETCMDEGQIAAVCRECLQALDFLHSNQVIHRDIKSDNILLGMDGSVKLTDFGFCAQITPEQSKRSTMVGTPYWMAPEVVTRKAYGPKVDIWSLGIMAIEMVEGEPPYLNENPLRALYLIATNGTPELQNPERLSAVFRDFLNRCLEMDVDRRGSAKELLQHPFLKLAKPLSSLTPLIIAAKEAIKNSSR
IRR(h), sequence (P14616 960-1297 limits assumed): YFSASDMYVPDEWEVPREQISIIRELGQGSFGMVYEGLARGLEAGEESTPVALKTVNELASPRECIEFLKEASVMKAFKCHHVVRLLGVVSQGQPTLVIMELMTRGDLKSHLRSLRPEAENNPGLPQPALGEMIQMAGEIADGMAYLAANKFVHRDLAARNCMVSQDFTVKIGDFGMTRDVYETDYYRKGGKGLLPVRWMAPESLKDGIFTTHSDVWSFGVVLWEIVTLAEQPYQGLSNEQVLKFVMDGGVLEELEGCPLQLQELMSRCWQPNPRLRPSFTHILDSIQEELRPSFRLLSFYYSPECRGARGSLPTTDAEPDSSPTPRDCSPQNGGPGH
Rsk3(h), sequence (Q15349 whole entry): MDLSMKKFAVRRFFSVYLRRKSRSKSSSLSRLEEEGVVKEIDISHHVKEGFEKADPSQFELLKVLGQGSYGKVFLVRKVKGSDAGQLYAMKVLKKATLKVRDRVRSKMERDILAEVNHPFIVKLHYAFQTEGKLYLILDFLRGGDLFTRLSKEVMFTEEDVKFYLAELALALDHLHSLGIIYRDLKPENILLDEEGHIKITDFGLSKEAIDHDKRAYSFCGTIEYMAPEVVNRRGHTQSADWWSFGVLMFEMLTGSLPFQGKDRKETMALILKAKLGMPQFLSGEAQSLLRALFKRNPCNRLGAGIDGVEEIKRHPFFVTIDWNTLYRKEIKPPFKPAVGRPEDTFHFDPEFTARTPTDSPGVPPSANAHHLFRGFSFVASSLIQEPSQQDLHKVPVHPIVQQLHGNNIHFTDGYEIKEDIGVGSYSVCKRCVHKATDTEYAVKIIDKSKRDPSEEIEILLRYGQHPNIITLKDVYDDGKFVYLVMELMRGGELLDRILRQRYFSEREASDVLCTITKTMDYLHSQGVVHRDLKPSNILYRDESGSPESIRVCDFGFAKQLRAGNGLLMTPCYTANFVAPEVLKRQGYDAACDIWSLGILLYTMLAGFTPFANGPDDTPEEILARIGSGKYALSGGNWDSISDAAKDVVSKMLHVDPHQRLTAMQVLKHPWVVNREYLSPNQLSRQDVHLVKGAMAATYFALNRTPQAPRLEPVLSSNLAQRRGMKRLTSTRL
PKCδ(h), sequence (Q05655 whole entry, stated change not applied): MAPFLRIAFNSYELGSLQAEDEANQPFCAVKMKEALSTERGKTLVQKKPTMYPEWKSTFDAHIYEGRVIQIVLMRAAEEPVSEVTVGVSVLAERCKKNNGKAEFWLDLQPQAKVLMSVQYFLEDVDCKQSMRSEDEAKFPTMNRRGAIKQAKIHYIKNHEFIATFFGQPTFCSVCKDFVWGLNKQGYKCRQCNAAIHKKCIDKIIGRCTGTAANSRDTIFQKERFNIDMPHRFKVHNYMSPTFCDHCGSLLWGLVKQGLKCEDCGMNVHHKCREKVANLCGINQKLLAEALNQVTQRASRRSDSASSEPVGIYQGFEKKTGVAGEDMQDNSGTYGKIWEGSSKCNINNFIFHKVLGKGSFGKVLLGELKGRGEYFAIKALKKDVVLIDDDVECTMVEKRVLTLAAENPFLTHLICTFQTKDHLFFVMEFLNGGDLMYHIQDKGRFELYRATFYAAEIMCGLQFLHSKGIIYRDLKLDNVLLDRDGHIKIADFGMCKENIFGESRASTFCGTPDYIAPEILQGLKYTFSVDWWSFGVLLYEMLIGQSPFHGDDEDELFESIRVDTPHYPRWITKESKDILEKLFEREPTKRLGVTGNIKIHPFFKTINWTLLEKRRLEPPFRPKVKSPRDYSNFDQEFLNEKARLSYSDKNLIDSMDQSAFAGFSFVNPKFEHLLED
mTOR/FKBP12(h), sequence (P42345 1362-2549 limits assumed, chain 1 of 2): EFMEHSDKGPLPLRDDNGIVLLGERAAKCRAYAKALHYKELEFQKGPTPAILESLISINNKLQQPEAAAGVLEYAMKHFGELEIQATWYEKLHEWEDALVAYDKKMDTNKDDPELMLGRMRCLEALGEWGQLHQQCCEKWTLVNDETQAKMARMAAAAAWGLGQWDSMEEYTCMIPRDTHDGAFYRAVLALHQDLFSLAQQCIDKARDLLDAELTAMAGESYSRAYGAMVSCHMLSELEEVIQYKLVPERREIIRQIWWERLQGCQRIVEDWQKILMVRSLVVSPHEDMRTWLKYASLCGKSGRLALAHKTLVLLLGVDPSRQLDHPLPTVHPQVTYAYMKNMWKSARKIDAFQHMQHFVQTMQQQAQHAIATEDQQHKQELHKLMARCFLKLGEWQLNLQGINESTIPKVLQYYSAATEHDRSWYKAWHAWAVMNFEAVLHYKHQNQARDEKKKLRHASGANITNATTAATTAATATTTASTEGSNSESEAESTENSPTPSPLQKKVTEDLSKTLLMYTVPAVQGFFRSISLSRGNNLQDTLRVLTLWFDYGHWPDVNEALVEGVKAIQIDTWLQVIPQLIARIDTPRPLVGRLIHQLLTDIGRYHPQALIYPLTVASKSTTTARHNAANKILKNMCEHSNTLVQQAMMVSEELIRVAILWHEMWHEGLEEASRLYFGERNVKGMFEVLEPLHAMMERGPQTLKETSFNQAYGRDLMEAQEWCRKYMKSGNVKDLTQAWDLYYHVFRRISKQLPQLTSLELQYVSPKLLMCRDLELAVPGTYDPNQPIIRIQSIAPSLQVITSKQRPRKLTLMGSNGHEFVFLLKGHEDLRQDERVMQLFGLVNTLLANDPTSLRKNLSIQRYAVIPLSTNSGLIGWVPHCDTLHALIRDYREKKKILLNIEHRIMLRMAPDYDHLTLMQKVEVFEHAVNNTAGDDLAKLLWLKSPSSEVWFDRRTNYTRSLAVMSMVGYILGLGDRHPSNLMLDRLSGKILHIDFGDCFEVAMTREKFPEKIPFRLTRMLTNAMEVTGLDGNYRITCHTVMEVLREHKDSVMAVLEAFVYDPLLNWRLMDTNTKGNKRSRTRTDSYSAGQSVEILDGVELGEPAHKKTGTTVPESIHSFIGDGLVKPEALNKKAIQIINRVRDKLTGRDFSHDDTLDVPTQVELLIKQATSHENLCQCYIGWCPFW
mTOR/FKBP12(h), sequence (P62942 whole entry, chain 2 of 2): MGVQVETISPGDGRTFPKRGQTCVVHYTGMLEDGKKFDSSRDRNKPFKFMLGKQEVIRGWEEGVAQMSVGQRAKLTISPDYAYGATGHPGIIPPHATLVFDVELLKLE
Aurora-B(h), sequence (Q96GD4 whole entry): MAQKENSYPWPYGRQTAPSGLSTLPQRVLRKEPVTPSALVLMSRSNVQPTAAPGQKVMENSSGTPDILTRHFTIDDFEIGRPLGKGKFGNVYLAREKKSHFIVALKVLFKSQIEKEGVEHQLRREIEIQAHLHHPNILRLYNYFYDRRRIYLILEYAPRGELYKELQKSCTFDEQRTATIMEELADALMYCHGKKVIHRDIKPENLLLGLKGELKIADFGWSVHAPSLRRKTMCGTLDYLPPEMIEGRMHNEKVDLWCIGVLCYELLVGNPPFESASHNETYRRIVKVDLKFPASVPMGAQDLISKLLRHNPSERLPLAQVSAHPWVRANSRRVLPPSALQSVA
PDGFRα(V561D)(h), sequence (P16234 550-1089 V561D limits assumed): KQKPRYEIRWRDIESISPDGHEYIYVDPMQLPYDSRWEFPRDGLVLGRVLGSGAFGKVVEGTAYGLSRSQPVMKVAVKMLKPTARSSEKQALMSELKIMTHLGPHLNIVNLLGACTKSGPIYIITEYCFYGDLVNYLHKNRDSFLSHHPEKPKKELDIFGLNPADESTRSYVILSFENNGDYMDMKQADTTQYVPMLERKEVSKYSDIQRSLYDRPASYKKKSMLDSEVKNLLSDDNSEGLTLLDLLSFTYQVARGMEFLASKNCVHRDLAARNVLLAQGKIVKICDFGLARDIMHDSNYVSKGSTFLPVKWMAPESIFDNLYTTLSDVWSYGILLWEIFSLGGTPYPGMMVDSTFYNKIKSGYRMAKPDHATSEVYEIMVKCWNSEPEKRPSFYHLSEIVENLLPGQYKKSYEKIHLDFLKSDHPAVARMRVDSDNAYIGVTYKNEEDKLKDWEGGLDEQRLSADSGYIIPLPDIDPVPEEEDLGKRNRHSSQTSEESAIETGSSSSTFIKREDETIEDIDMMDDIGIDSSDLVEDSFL

FAKLAARLYRKALARQLGVAA [MMI-0300]
% activity (LOK(h)): 37% | % activity (PDGFRα(V561D)(h)): 82% | % activity (cSRC(h)): 26% | % activity (EGFR(h)): 21% | % activity (Met(Y1248D)(h)): 102% | % activity (PASK(h)): 29% | % activity (SGK3(h)): 10% | % activity (Rsk3(h)): 76% | % activity (ROCK-I(h)): 79% | % activity (HIPK1(h)): 74% | % activity (PKG1β(h)): 50% | % activity (PAK3(h)): 140% | % activity (EphA1(h)): 73% | % activity (cKit(D816H)(h)): 126% | % activity (PKBβ(h)): 84% | % activity (mTOR/FKBP12(h)): 145% | % activity (IRR(h)): 8% | % activity (PKCδ(h)): 101% | % activity (Aurora-B(h)): 128% | % activity (CSK(h)): 49%

KAFAKLAARLYRKALARQLGVAA [MMI-0400]
% activity (LOK(h)): 18% | % activity (PDGFRα(V561D)(h)): 100% | % activity (cSRC(h)): 14% | % activity (EGFR(h)): 16% | % activity (Met(Y1248D)(h)): 31% | % activity (PASK(h)): 28% | % activity (SGK3(h)): 8% | % activity (Rsk3(h)): 71% | % activity (ROCK-I(h)): 73% | % activity (HIPK1(h)): 91% | % activity (PKG1β(h)): 53% | % activity (PAK3(h)): 121% | % activity (EphA1(h)): 61% | % activity (cKit(D816H)(h)): 143% | % activity (PKBβ(h)): 98% | % activity (mTOR/FKBP12(h)): 125% | % activity (IRR(h)): 8% | % activity (PKCδ(h)): 90% | % activity (Aurora-B(h)): 150% | % activity (CSK(h)): 16%
